How the values were obtained:
[1] = target: T1, HIS-tagged extracellular domain of canine PD-1; assay: ELISA on plate-coated HIS-tagged canine PD-1 ECD, two-fold dilutions of mAb, HRP goat anti-mouse IgG, TMB
T1 construct: also called canine PD-1 ECD-8HIS; PD-1ECD-HIS
T1 chain: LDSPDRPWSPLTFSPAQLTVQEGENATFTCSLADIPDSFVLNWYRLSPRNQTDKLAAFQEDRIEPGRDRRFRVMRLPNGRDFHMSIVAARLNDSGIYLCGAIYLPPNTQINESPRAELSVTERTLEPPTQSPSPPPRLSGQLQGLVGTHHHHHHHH
Procedure: Purified anti-canine PD-1 mAbs were tested for reactivity with the HIS-tagged ECD domain of canine PD-1 by ELISA as follows: HIS-tagged canine PD-1 ECD protein is diluted to 10 μg/mL in coating buffer (Carbonate/Bicarbonate pH 9.0) and dispensed at 100 μl/well in 96-well flat bottomed ELISA plates (NUNC). The plates are incubated at 4° C. overnight. The plates are then washed three times with phosphate buffered saline containing 0.05% Tween-20 (PBST). Next, 200 μl of blocking buffer (5% skim milk in PBST) is added to each well and the plates are incubated at 37° C. for 60 minutes. The plates are then washed three times with PBST. Next, 100 μl of test mAbs diluted in blocking buffer is added to the first wells of the appropriate columns. Test mAbs are then diluted two-fold to the appropriate plate position. Following incubation of the plates at 37° C. for 60 minutes, the plates are washed three times with PBST. Next, 100 μl per well of a 1:2,000 dilution of a horseradish peroxidase conjugated goat anti-mouse IgG (KPL) is added to the plates, which are then incubated at 37° C. for 60 minutes. Then the plates are washed three times with PBST, and 100 μl/well of 3,3′,5,5′ tetramethyl benzidine, (TMB) substrate (from KPL) is added to the plates. The color reaction is allowed to develop for 5-20 minutes at 37° C. prior to measuring absorbance at 650 nm.

[2] = target: T2, canine PD-1 expressed on CHO cells (canine); assay: ligand blockade CELISA: mAb diluted from 54.8 µg/mL on CHO cells expressing canine PD-1, then cPD-L1-Fc-biotin, streptavidin-HRP; the signal is bound PD-L1
T2 construct: CHO DXB11 cells transfected with plasmid p96793; also called cPD-1 CHO cells; CHO cell line expressing canine PD-1
T2 chain: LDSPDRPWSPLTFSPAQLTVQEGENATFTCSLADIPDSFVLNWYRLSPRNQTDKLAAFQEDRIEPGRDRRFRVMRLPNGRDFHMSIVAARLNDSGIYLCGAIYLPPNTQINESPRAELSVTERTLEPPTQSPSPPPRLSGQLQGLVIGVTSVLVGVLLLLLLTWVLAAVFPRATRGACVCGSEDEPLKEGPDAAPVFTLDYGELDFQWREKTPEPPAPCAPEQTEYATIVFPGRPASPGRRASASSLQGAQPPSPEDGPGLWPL
Procedure: (§1) A cell-based ELISA (CELISA) assay based on the CHO cell line expressing canine PD-1 was used for mouse mAbs which react with canine PD-1 (cPD-1). Ligand blockade was confirmed using this assay in conjunction with biotinylated cPD-L1/Fc protein. Briefly, seed cPD-1 CHO cells were placed in 96-well plates at 4×10⁴ cells per well and the cells were incubated at 37° C. for 18-24 hours till they are 95-100% confluent. The cell culture media was aspirated off, and the plates were washed 3× with PBS+0.05% Tween20 and 1×CHO media. Three-fold serial dilutions were made of anti-cPD1 mAbs in CHO media, starting at 30 μg/mL, and 50 μL/well of each antibody dilution were added down the plate. The incubation was performed at 37° C., 5% CO₂ with shaking for 30 min. 50 μL/well of cPD-L1-Fc-biotin (2 μg/ml in CHO media stock) was added and the incubation at 37° C., 5% CO₂ was continued with shaking for 45 min. The plates were washed 6 times with PBS+0.05% Tween 20. 100 ul/well of Streptavidin-HRP (1:2000) in CHO media was added followed by a incubation for 30-60 min at 37° C./5% CO₂. The plates were washed 5 times with PBS+0.05% Tween20 and then 100 μl/well of TMB color developing substrate was added. The color development was stopped by adding 50 μl/well of 1M phosphoric acid. The optical density (O.D.) at A450-A620 was measured using an ELISA plate reader.

[3] = target: T2, canine PD-1 expressed on CHO cells; assay: CELISA on CHO cells expressing canine PD-1, mAb diluted from 30 ug/mL (x axis: log of dilution), HRP goat anti-mouse, TMB
[4] = target: T2, canine PD-1 expressed on CHO cells; assay: ligand blockade CELISA: mAb diluted from 30 ug/mL on CHO cells expressing canine PD-1, then cPD-L1-Fc-biotin, streptavidin-HRP; the signal is bound PD-L1
Procedure: as §1

[5] = target: T3, canine PD-1 antigen peptide GRDRRFRVM*RLPNGR (SEQ ID NO: 84) (canine); assay: ProImmune ProArray Ultra peptide microarray, fluorescent secondary antibody
T3 construct: The starred methionine has also been reported as a threonine
T3 peptide: GRDRRFRVMRLPNGR
Procedure: This library of overlapping peptides was designed to cover the full length canine PD-1 protein. The determination of peptide-antibody binding was performed by attachment of antibody samples to the ProArray Ultra® peptide microarray, followed by incubation with a fluorescent-labelled secondary antibody. All peptides are synthesized separately, and then bound to the ProArray Ultra® slide surface alongside ProImmune® murine IgG controls. This optimized process ensures that peptides are presented on the array in such a manner as to closely mimic the properties of the corresponding protein region, circumventing the inherent physiochemical variation of the free peptides themselves and making a compatible, combined peptide and protein array platform. […] After several washing steps, the ProArray Ultra® arrays were dried and scanned using a high-resolution fluorescence microarray scanning system. After scanning the fluorescent labelled ProArray Ultra® slides, the scanner recorded an image which was evaluated using image analysis software—enabling interpretation and quantification of the levels of fluorescent intensities associated with each fluorescent spot on the scanned microarray slide. The results of this experiment indicated some of the canine PD-1 peptides were recognized by some of the mAbs evaluated.

[6] = target: T2, canine PD-1 expressed on CHO cells; assay: ligand blockade CELISA: mAb diluted from 23.2 µg/mL on CHO cells expressing canine PD-1, then cPD-L1-Fc-biotin, streptavidin-HRP; the signal is bound PD-L1
Procedure: as §1

B1: mAb 2G9 (mouse anti-canine PD-1 monoclonal antibody) (antibody, V domains shown)
VH: QAYLQQSGAELVRPGASVKISCKASGYTFTRYNMHWVKQTPRQGLEWIGTIYPGYGDTSYNQKFKGKATLTVDISSSTAYMQLTSLTSEDSAVYFCSREFADDYPIPPFDYWGQGTTLTVSS
VL: DVLMTQTPLSLPVSLGDQASISCRSSQNIVHSNGNTYLEWYLQKPGQSPKLLIYKVSNRFSGVPDRFSGSGSGTDFTLKISRVEAEDLGIYYCFQGSHVPYTFGGGTKLEIK
notes: Mouse hybridoma mAb
Question: Which results are given for B1?
Answer: binding result [1]: binds; binding result [2]: binds

B2: mAb 1B5 (mouse anti-canine PD-1 monoclonal antibody) (antibody, V domains shown)
VH: QIQLVQSGPELKKPGETVKISCKASGYTFTTYGMSWVKQAPGKGLKWMGWINIYSGIPTYADDFKGRFAFSLETSASTAYLQIDNLKNEDTATYFCARFDGPDYWGQGTTLTVSP
VL: DIVMTQSPSSLAMSVGQKVTMSCKSSQSLLNSVNQKNYLAWYQQKPGQSPKVLVYFASTRVSGVPDRFIGSGSGTDFTLTITSVQAEDLTTYLCQQYFSTPLTFGAGTKLEIK
notes: Mouse mAb; also called IBS
Question: Does B2 bind [3]?
Answer: Result: binds

B3: 4D12 (antibody, V domains shown)
VH: QIQLVQSGPELKKPGETVKISCKASGYTFTTYGMSWVKQAPGKGLKWMGWINIYSGMPTYADDFKGRFAFSLETSVSTAYLQINNLKNEDTATYFCARFDGPDYWGQGTTLTVSS
VL: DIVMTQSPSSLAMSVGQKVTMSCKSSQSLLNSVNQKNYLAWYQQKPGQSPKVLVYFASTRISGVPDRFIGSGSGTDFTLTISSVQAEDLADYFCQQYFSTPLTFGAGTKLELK
notes: Mouse anti-canine PD-1 mAb; also called mAb 4D12; copies: 2 + 2
Question: What does the source list for B3?
Answer: binding result [1]: binds; binding result [4]: binds

B4: Murine 3B6 (mouse anti-canine PD-1 monoclonal antibody) (antibody, V domains shown)
VH: QIQLVQSGPELKKPGETVKISCKASGYTFTTYGMSWVKQAPGKGLKWMGWINIYSGIPTYADDFKGRFAFSLETSASTAYLQIDNLKNEDTATYFCARFDGPDYWGQGTTLTVSS
VL: DIVMTQSPSSLAVSVGRKVTMSCKSSQSLLNSVNQKNYLAWYQQKPGQSPKVLVYFASARVSGVPDRFIGSGSGTDFTLAISSVQAEDLTTYFCQQYFSTPLTFGAGTKLELK
notes: Mouse hybridoma mAb; also called mAb 3B6
Question: Does B4 bind [3]?
Answer: Result: binds

Question: Does B4 bind [1]?
Answer: Result: binds

B5: 5G5 (antibody, V domains shown)
VH: EVQLQQSVAELVRPGASVKLSCTVSGFNIKNTYMHWVKQRPEQGLEWIGRIDPANVNTKYAPKFQGKATITTDTSSNTAYMQLSSLTSEDTAIYYCVLIFYDYDGDIDVWGTGTKVTVSS
VL: DIQMNQSPSSLSASLGDTITITCHASQNINVWLSWYQQKPGNIPKLLIYKASNLHTGVPSRFSGSGSGTDFTLTISSLQPEDIATYYCQQGQSYPLTFGAGTKLELK
notes: Mouse anti-canine PD-1 mAb; also called mAb 5G5; copies: 2 + 2
Question: Does B5 bind [1]?
Answer: Result: binds

B6: Murine 2H9 (mouse anti-canine PD-1 monoclonal antibody) (antibody, V domains shown)
VH: EVQLQQSVAELVRPGASVKLSCTASGFNIKNTYMHWIKQRPEQGLEWIGRIAPANVDTKYAPKFQGKATITADTSSNTAYMQLSTLTSEDTAIYYCVLIYYDYDGDIDVWGTGTTVTVSS
VL: DIQMNQSPSSLSASLGDTITITCHASQNINVWLSWYQQRPGNIPKLLIYKASHLHTGVPSRFSGSGSGTGFTLTISSLQPEDIATYYCQQGQSWPLTFGAGTKLELK
notes: Mouse hybridoma mAb purified on Protein G; also called mAb 2H9
Question: Does B6 bind [5]?
Answer: Result: binds

Question: Does B6 bind [1]?
Answer: Result: binds

Question: Does B6 bind [6]?
Answer: Result: binds
